In patent publication US20140248666A1 (Amgen, published 2014):

Tests used:
[1] = biological target: T1, human sclerostin, mature form (signal peptide removed) (human, UniProt Q9BQB4 24-213); assay: Biacore human sclerostin peptide epitope competition binding assay: 2 nM Mab injected over human sclerostin immobilised on a CM5 chip, alone or after preincubation with 20 nM soluble human sclerostin
T1 construct: 190 amino acid glycoprotein with four disulfide bonds (C1-C5, C2-C6, C3-C7, C4-C8); also called SOST; recombinant human sclerostin
T1 sequence: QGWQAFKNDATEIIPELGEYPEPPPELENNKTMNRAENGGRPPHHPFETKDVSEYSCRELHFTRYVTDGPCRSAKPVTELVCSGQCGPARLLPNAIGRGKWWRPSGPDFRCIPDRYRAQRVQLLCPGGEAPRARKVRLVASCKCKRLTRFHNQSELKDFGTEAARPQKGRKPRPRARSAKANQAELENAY
Method: (§1) Immobilization of mature form human sclerostin to a BIAcore sensor chip (CM5) surface was performed according to manufacturer's instructions. Briefly, carboxyl groups on the sensor chip surfaces were activated by injecting 60 μL of a mixture containing 0.2 M N-ethyl-N′-(dimethylaminopropyl) carbodiimide (EDC) and 0.05 M N-hydroxysuccinimide (NHS). Human sclerostin was diluted in 10 mM sodium acetate, pH 4.0 at a concentration of 20 μg/mL followed by injecting over the activated CM5 surface. Excess reactive groups on the surfaces were deactivated by injecting 60 μL of 1M ethanolamine. Final immobilized levels were ˜5000 resonance units (RU) for the human sclerostin surface. A blank, mock-coupled reference surface was also prepared on the sensor chips.

[2] = biological target: T2, human sclerostin tryptic peptide T20.6 (human); assay: Biacore human sclerostin peptide epitope competition binding assay: 2 nM Mab preincubated with 20 nM peptide in solution, then injected over immobilised human sclerostin; loss of Ru signal means the Mab bound the peptide
T2 chain 1: DVSEYSCRELHFTR
T2 chain 2: SAKPVTELVCSGQCGPAR
T2 chain 3: WWRPSGPDFRCIPDRYR
T2 chain 4: LVASCKCKRLTR
Method: as §1

[3] = biological target: T3, human sclerostin tryptic peptide T19.2 (Interchain disulfide C2-C6 (Cys71-Cys125 of SEQ ID NO:1): chain 1 pos 7 to chain 2 pos 5.); assay: Biacore human sclerostin peptide epitope competition binding assay: 2 nM Mab preincubated with 20 nM peptide in solution, then injected over immobilised human sclerostin; unchanged Ru signal means the Mab did not bind the peptide
T3 construct: Two peptides linked by the C2-C6 disulfide bond
T3 peptide 1: YVTDGPCR
T3 peptide 2: VQLLCPGGEAPR
Method: as §1

[4] = biological target: T4, human sclerostin AspN peptide AspN18.6 (FIG. 12 labels it '(Glycopeptide)'. The glycan site is not stated. The only N-X-T sequon is NKT, so the glycosylated residue is probably Asn at chain 1 pos 22, written N.); assay: as above
T4 peptide: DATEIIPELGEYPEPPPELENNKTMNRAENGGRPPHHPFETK
Method: as §1

[5] = biological target: T2, human sclerostin tryptic peptide T20.6; assay: as above
Method: as §1

[6] = biological target: T1, human sclerostin, mature form (signal …); assay: Biacore cross-blocking, human sclerostin on CM5 chip; mixed with competitor Ab-3, each 1.3 uM binding sites
Method: (§2) Human sclerostin was coupled to a CM5 Biacore chip using standard amine coupling chemistry to generate a sclerostin coated surface. 300 resonance units of sclerostin were coupled to the surface.
(§3) 20 μL of the test mixture was passed over the sclerostin-coated chip at a flow rate of 10 μL/min and the amount of binding recorded. The chip was then treated with two 60 second pulses of 30 mM HCl to remove all of the bound antibody. A solution containing only one of the antibodies of the test mixture (at 1.3 μM in the same buffer as the test mixture on a binding site basis) was then passed over the chip in the same manner as the test mixture and the amount of binding recorded. The chip was again treated to remove all of the bound antibody and finally a solution containing the other antibody from the test mixture alone (at 1.3 μM in the same buffer as the test mixture on a binding site basis) was passed over the chip and the amount of binding recorded.
(§4) The table below show the results from cross-blocking assays on a range of different antibodies. The values in each square of the table represent the amount of binding (in RU) seen when the antibodies (at 1.3 μM on a binding site basis) or buffer indicated in the top row of the table were mixed with the antibodies (at 1.3 uM on a binding site basis) or buffer indicated in the first column of the table.

[7] = biological target: T1, human sclerostin, mature form (signal …); assay: Biacore cross-blocking, human sclerostin on CM5 chip; mixed with competitor Ab-4, each 1.3 uM binding sites
Method: as §2, §3, §4

[8] = biological target: T1, human sclerostin, mature form (signal …); assay: Biacore cross-blocking, human sclerostin on CM5 chip; mixed with competitor Ab-13, each 1.3 uM binding sites
Method: as §2
(§5) The antibodies to be tested were diluted to a concentration of 200 ug/ml in HBS-EP buffer (being 10 mM HEPES pH 7.4, 150 mM NaCl, 3 mM EDTA, 0.005% (v/v) Surfactant P20) and then mixed in a one to one molar ratio (on a binding site basis) to generate the test mixture. This test mixture thus contained each antibody at a concentration of 100 ug/ml (1.3 um on a binding site basis). Separate solutions containing each of the antibodies in the test mix alone were also prepared. These solutions contained the individual antibodies in HBS-EP buffer at a concentration of 100 ug/ml (1.3 um on a binding site basis).
as §3

[9] = biological target: T1, human sclerostin, mature form (signal …); assay: Biacore cross-blocking, human sclerostin on CM5 chip; mixed with competitor Ab-19, each 1.3 uM binding sites
Method: as §2, §5, §3

[10] = biological target: T1, human sclerostin, mature form (signal …); assay: Biacore cross-blocking on human sclerostin; mixture with competitor Ab-3, mean RU against the sum of each alone
Method: as §2, §5, §3

[11] = biological target: T1, human sclerostin, mature form (signal …); assay: Biacore cross-blocking on human sclerostin; mixture with competitor Ab-19, mean RU against the sum of each alone
Method: as §2, §5, §3

B1: Antibody C (antibody, mouse IgG1, kappa, V domains shown)
VH: EVQLQQSGPELVKPGTSVKMSCKASGYTFTDCYMNWVKQSHGKSLEWIGDINPFNGGTTYNQKFKGKATLTVDKSSSTAYMQLNSLTSDDSAVYYCARSHYYFDGRVPWDAMDYWGQGTSVTVSS
VL: DIVLTQSPASLTVSLGLRATISCKASQSVDYDGDSYMNWYQQKPGQPPKLLIYAASNLESGIPARFSGNGSGTDFTLNIHPVEEEDAVTYYCQQSNEDPWTFGGGTKLEIKR
notes: Mouse antibody; mature chains; also called Ab-C; Mab-C
B1: binds [1]; binds [2]; no binding (tested: 20 nM) [3]. B1: no binding (tested: 20 nM) [4].

B2: Antibody B (antibody, mouse IgG1, kappa, V domains shown)
VH: QVTLKESGPGILQPSQTLSLTCSFSGFSLSTSGMGVGWIRHPSGKNLEWLAHIWWDDVKRYNPVLKSRLTISKDTSNSQVFLKIANVDTADTATYYCARIEDFDYDEEYYAMDYWGQGTSVIVSS
VL: QIVLTQSPTIVSASPGEKVTLICSASSSVSFVDWFQQKPGTSPKRWIYRTSNLGFGVPARFSGGGSGTSHSLTISRMEAEDAATYYCQQRSTYPPTFGAGTKLELKR
notes: Mouse antibody; mature chains; also called Ab-B; Mab-B
B2: binds [1]; no binding (tested: 20 nM) [3]; no binding (tested: 20 nM) [5]. B2: no binding (tested: 20 nM) [4].

B3: Antibody D (antibody, mouse IgG1, kappa, V domains shown)
VH: EVQLQQSGPELVTPGASVKISCKASGYTFTDHYMSWVKQSHGKSLEWIGDINPYSGETTYNQKFKGTATLTVDKSSSIAYMEIRGLTSEDSAVYYCARDDYDASPFAYWGQGTLVTVSA
VL: DVQMIQSPSSLSASLGDIVTMTCQASQGTSINLNWFQQKPGKAPKLLIYGSSNLEDGVPSRFSGSRYGTDFTLTISSLEDEDLATYFCLQHSYLPYTFGGGTKLEIKR
notes: Mouse antibody; mature chains; also called Ab-D; Mab-D
B3: binds [1]; binds [2]; no binding (tested: 20 nM) [3]. B3: no binding (tested: 20 nM) [4].

B4: Antibody A (antibody, mouse IgG1, kappa, V domains shown)
VH: QSLEESGGRLVTPGTPLTLTCTASGFSLSSYWMNWVRQAPGEGLEWIGTIDSGGRTDYASWAKGRFTISRTSTTMDLKMTSLTTGDTARYFCARNWNLWGQGTLVTVSS
VL: AQVLTQTPASVSAAVGGTVTINCQSSQSVYDNNWLAWFQQKPGQPPKLLIYDASDLASGVPSRFSGSGSGTQFTLTISGVQCADAATYYCQGAYNDVIYAFGGGTEVVVKR
notes: Rabbit-mouse chimeric antibody; mature chains (signal peptides cleaved off); also called Ab-A; Mab-A
In the case of B4, the “amount of binding (RU)” value [6] is reported as 946 RU, the “amount of binding (RU)” value [7] is reported as 833 RU and the “amount of binding (RU)” value [8] is reported as 1080 RU. The “amount of binding (RU)” value [9] was 868 RU, the “percentage of the theoretical binding” value [10] was 93.5% and the “percentage of the theoretical binding” value [11] was 65%. B4: no binding (tested: 20 nM) [3]; no binding (tested: 20 nM) [5]; no binding (tested: 20 nM) [4].
